# Data taken from PMC5663973.
# Target: DHR2 domain of human DOCK5 (residues I1212-L1642) (human)
# Assay: SEC-SAXS; unbound DOCK5^DHR2 at 80 μM; BioSEC-3 column; 20 mM Tris pH 8.0, 150 mM NaCl, 0.5 mM EDTA; 295 K
substance,measurement,value
DHR2 domain of human DOCK5 (residues I1212-L1642) (domain or fragment),stoichiometry N,2
